Experimental data taken from patent publication CN103319600A (MILITARY MEDICINE INST OF NANJING MILITARY REGION, dated 2013).

Target: T1, 阴性对照蛋白BSA (UniProt P02769 25-607)
T1 construct: Negative control protein
Assay: ELISA

T1 sequence (P02769 25-607 limits assumed): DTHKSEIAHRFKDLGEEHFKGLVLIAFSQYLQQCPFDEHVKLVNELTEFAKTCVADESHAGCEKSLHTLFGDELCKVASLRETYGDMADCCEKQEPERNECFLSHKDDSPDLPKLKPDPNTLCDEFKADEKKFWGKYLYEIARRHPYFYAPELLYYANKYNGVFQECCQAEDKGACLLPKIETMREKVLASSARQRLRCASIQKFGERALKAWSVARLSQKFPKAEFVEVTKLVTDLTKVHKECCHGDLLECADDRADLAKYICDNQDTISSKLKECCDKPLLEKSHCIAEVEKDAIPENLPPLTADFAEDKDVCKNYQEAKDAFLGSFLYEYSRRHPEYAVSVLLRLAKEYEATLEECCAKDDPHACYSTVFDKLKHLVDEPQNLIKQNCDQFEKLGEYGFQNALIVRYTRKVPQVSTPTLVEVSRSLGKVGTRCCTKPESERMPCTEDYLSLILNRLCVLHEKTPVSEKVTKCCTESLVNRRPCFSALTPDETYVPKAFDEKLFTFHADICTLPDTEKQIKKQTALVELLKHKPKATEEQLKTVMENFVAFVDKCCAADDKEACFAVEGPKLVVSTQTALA

binding result: no binding
B1: 人源抗TLR4抗体Fab (Fab, V domains shown)
VH: EVQLVESGGGLVKPGRSLRLSCAASGFTFSSYAMHWVRQAPGKGLEWVAVISYDGSNKYYADSVKGRFTISRDNSENTLYLQMNSLRAEDTAVYYCAAYSSSSWFDPWGQGTLVTVSP
VL: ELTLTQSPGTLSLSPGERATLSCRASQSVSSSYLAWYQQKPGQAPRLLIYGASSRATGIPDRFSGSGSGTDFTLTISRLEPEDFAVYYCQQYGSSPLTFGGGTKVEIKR
notes: also called 抗TLR4基因工程抗体Fab; 抗TLR4的Fab
